Tested on: MS2 coat protein
Test: apparent KD of MS2 coat protein; designed switch direction (-1 OFF switch, 1 ON switch): -1; higher = weaker reporter binding
In short: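 SNAP-549-labelled MS2 coat protein was titrated, doubling from 0.7 or 1.5 nM to 3 µM, over designed RNA switches transcribed on Illumina chips by stalled E. coli RNA polymerase. Runs were done without input, with 200 uM small-molecule ligand, or with an oligonucleotide input. Apparent KD is the per-design median over clusters of curve-fitted normalised fluorescence.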

[1] = Eterna round: R95, input ligand: FMN 200 uM
[2] = Eterna round: R95, input ligand: microRNA oligo, concentration not stated
[3] = Eterna round: R95, input ligand: none
[4] = input ligand: microRNA oligo, concentration not stated

Sequence	apparent KD of MS2 coat protein [1]	apparent KD of MS2 coat protein [2]	apparent KD of MS2 coat protein [3]	apparent KD of MS2 coat protein (input ligand: FMN 200 uM)	apparent KD of MS2 coat protein (input ligand: none)	apparent KD of MS2 coat protein [4]
UAUAGACAUGAGGAUCACCCAUGUGAGGAUAUGUACAACAACAAGCCGGAAGCGGAAUACAGAAGGCACAAAUA [JR_Exclusion1_Sub029] (puzzle: Exclusion 1)	36.8 nM	35.7 nM	51.4 nM	–	–	–
UUUUAGCAAGCGAGAUCCCACAUGAGGAUCACCCAUGUGCAUCCAGAAUUACUUUUUGCAUAAGCUCGUCUUAUAUA [JR_STOV1_v2_Sub080] (Eterna round: R97, puzzle: Sensor, turn-off variant 1)	–	–	–	58.8 nM	64.5 nM	–
UUUUUCAGGCCAGAUCCUCACAUGAGGAUCACCCAUGUGCUCGUCUGUUUUCGCACUAGCUUUUUUUUGGUAGUGCU [Level Boss var2-15] (puzzle: Sensor v3, turn-off variant 1)	280 nM	28.4 nM	325 nM	–	–	–
ACAUGUUAUGUAGGAUAUUAGACACAUGAGGAUCACCCAUGUAACCGGAGGCUUUACUAUGAGUUUGAGAAGGGUAUGAACAUG [Ex NG2 #66] (Eterna round: R96, puzzle: Exclusion NG 2)	–	–	–	78.1 nM	92.1 nM	45.4 nM
AUUGUUGUUGUGAGGAUAUCGUUGAUUUUUUGAAACGAGAAGGCACAUGAGGAUCACCCAUGUUAGUUGUUGGU [JR_BMOE4_Sub057] (puzzle: Brourd's mod of Exclusion 4)	–	77.3 nM	–	–	–	–
UCCGUGUCAGGAUAUAACUGGUCGAGCGCAGAAGCGUCCUGUUAGAAGGGACAUGAGGAUCACCCAUGUUUAAC [Eternabot (L1) Solution 74] (Eterna round: R97, puzzle: Exclusion 4)	–	–	–	213 nM	38.5 nM	–
AUAAUUAAUGCAGGAUAUCAGCACGUUUAGUGCUGAGAAGGGCACAUGAGGAUCACCCAUGUGAUCAAUUAAUAUUAAUAUUAU [ENG1/11-D2] (Eterna round: R96, puzzle: Exclusion NG 1)	–	–	–	269 nM	65 nM	51.1 nM
GCUUGGCGAGGAUAUACAUGAGGAUCACCCAUGUGAGAGAAUAAAGUGAGGAAGAAAAGUAGAAGGCGCUGAGG [Mat - Exclusion 3 - Mod of Salish D58] (puzzle: Exclusion 3)	199 nM	40.4 nM	40.4 nM	–	–	–
ACAACAAGCUUUUUGUUCGUAGAACAUGAUGCUCUAGUCACAUGAGGAUCACCCAUGUCAACUAGAUAGAUAGUUGA [JR_SV3TOV2_Sub062] (puzzle: Sensor v3, turn-off variant 2)	43 nM	95.7 nM	44.1 nM	–	–	–
AAUAAGUGAGGAUAUCCAAUAAUAAAUAAAAUAAUAAAUAAGGAGAAGGCACAUGAGGAUCACCCAUGUAAUAA [JMF's solution 2] (puzzle: Exclusion 4)	19 nM	14.8 nM	15.7 nM	–	–	–
AAAAGAAGUGUUAGGAUAUGUGUAAGUAGAAAGACACAGAAGGAACAUGAGGAUCACCCAUGUGGCCAAAGAAC [Vesotila] (puzzle: Brourd's mod of Exclusion 4)	38.7 nM	14.1 nM	13.6 nM	–	–	–
UAUAUAUAGUAAGGAUAUGUAUAUAGUUUAUAAACAGAAGGUACUGACAUGAGGAUCACCCAUGUUUUAGUGUGGGCAUGUAGA [JMF's solution 56] (Eterna round: R96, puzzle: Exclusion NG 1)	–	–	–	–	–	61.3 nM
GCAAGCUUUUUCAAUAAGAACAUGAGGAUCACCCAUGUUUAAGGUAUUACUUUUGGGCUCUUUAGUGCUCGUCUUAU [JR_STOV1_Sub035] (Eterna round: R97, puzzle: Sensor, turn-off variant 1)	–	–	–	17.9 nM	18.2 nM	–
AACACGGGAGGAUAUGCGACAGGAAACAUGAGGAUCACCCAUGUGGAUGGUCGUACAAACGUAGAAGGCCCGCCCA [Eternabot (Original) Solution 1] (Eterna round: R97, puzzle: Exclusion 5)	–	–	–	12.9 nM	15.3 nM	–
CUAGCGGAUGUAGGAUAUCGGACUGUUUCAGUCUGAGAAGGACAUGAGGAUCACCCAUGUAUAGCUGCGUGAGUAGCUCGCUAG [JL ENG1 3.96] (Eterna round: R96, puzzle: Exclusion NG 1)	–	–	–	39.2 nM	19.8 nM	17.5 nM
UUAAUUACGGUGCUUUAACCUCACAUGAGGAUCACCCAUGUGCAGGAUAUCAGCUCGUGUAGAGCUGAGAAGGGCACUGCACCG [ExNG3/11-A3] (Eterna round: R96, puzzle: Exclusion NG 3)	–	–	–	14 nM	12.1 nM	8.05 nM
AAGACACAUGAGGAUCACCCAUGUGAGGAUAUUCGAUGCUAAGCGUAAGCUUAGUAUCGGAGAAGGCACAAAGG [Salishxclusion 6 - Jieux - Exclusion 1] (Eterna round: R97, puzzle: Exclusion 1)	–	–	–	128 nM	48.2 nM	–

Sequence	apparent KD of MS2 coat protein [1]	apparent KD of MS2 coat protein [2]	apparent KD of MS2 coat protein [3]	apparent KD of MS2 coat protein (input ligand: FMN 200 uM)	apparent KD of MS2 coat protein (input ligand: none)	apparent KD of MS2 coat protein [4]
GAUUAUGCGAGCUUUAGGGACAUGAGGAUCACCCAUGUUCGUCUUGUUGAUCUAGGUGCACUGACAUACCUAAAUCU [JMF 88] (puzzle: Sensor v3, turn-off variant 1)	20.9 nM	27.7 nM	22.4 nM	–	–	–
UUAUUAAAUGUAGGAUAUGCAUAUUAUUAUUAUGCAGAAGGACAUGAGGAUCACCCAUGUAUAUUAUUAUUAUUUAUUAUAUAU [Title] (Eterna round: R96, puzzle: Exclusion NG 1)	–	–	–	–	–	36.1 nM
GCUGCACAUGUAGGAUAUCUGCACGUGUAGUGCAGAGAAGGACAUGAGGAUCACCCAUGUAGAUCAGCAGCAAUUAAUUUAAUU [ENG1/6-A2] (Eterna round: R96, puzzle: Exclusion NG 1)	–	–	–	150 nM	242 nM	273 nM
AGAAGUAGAAACCGAUCCUACAUGAGGAUCACCCAUGUAGCAAGACGUGCACGCGAAGCUCGUCAGACUACCAGAAU [salish99_TOv1_r3_006] (puzzle: Sensor v3, turn-off variant 1)	340 nM	193 nM	347 nM	–	–	–
GUCAUCAAACAUGGGUGUAACAUGAGGAUCACCCAUGUUAUCAAGUUUUUUGCUCGUCUUAUAAUAAGUUUGAUGAC [Antenna 13 - Jieux - Sensor, turn-off variant 1] (Eterna round: R97, puzzle: Sensor, turn-off variant 1)	–	–	–	87.5 nM	97.6 nM	–
GGUAGGUGUGACUUGGGUGACAUGAGGAUCACCCAUGUCACAAGCUUGUUGCUCGCCUUGUAGUUAACCCAUGUCAC [LRO Sensor-off var1-30 mod of Stov1-13-A1 by Brourd] (Eterna round: R97, puzzle: Sensor, turn-off variant 1)	–	–	–	34.1 nM	34.5 nM	–
AAAACGUCAGGAUAUACGAAAUAAAAUAAAAUAAAAUAAAAGUAGAAGGGACAUGAGGAUCACCCAUGUAAUAA [Exclusion 4 #1] (puzzle: Exclusion 4)	43.7 nM	26.6 nM	36.2 nM	–	–	–
UAACAUGUACAAGGAUAUCAGCACGUUUAGUGCUGAGAAGGUGUAACAUGAGGAUCACCCAUGUAGAUCAUUAAUUAAUUAAUU [ENG1/9-B2] (Eterna round: R96, puzzle: Exclusion NG 1)	–	–	–	244 nM	102 nM	120 nM
GGUUGACAUGAGGAUCACCCAUGUGAGGAUAUGCGAGAGAAAAAAGUGAGGAAGAAAAGCAGAAGGCGCUGUCG [salish99-ex1_r3_003] (puzzle: Exclusion 1)	29.8 nM	22.4 nM	45.5 nM	–	–	–
CUCAUGUGAGGAUAUGUGAUCUGCUUUCUGUGUAGAUGAUCACAGAAGGCACAUGAGGAUCACCCAUGUAGAUC [Ex4 - 3 - 28] (puzzle: Exclusion 4)	–	67.5 nM	–	–	–	–
GCACAGGCAGGAUAUACAUGAGGAUCACCCAUGUGAUCCCUUAGGUACAAAAGUACUAGUAGAAGGGCCUGUGC [Omei Ex3 Model Bachelor's Dilema v49] (Eterna round: R97, puzzle: Exclusion 3)	–	–	–	403 nM	1040 nM	–
GAUUAUGCGAGCUUUAGGGACAUGAGGAUCACCCAUGUUCGUCUUAUUAGUCUAAAUGCACUGACAUACCUAAAUCU [JMF 73] (puzzle: Sensor v3, turn-off variant 1)	12.9 nM	15.3 nM	13.9 nM	–	–	–
AAAUUGCUAGAGGAUAUCGGAUAGGAUUUAUUACGAGAAGGUUAGACAUGAGGAUCACCCAUGUUCUGUUGGGA [EX6 #24] (Eterna round: R97, puzzle: Exclusion 6)	–	–	–	89.5 nM	36.9 nM	–
UGUACGCGAGGAUAUACAUGAGGAUCACCCAUGUCAUAUGAAAUGUAAUGAGUAGCGGGUAGAAGGCGCUUUUG [Eternabot (L2) Solution 26] (Eterna round: R97, puzzle: Exclusion 3)	–	–	–	21.8 nM	31.3 nM	–
CUUUAGUGAGGAUAUCGGUAGUAAUACAAUAGUAUUACUACUGAGAAGGCACAUGAGGAUCACCCAUGUUCCUC [Mat - Exclusion 4 - Mod of Omei - D82] (puzzle: Exclusion 4)	–	30.2 nM	–	–	–	–
CUUCAGUCAGGAUAUCUGCACGCUGGUGAGACCGGACGGAAGGAGAAGGGACAUGAGGAUCACCCAUGUAAAGC [Xesoar] (puzzle: Exclusion 4)	–	15.7 nM	–	–	–	–
CCUCCACAUGAGGAUCACCCAUGUCAGGAUAUCGUGUGUGCGUUUUCGGUCUUUCGCGCGAGAAGGGACGUCUG (puzzle: Exclusion 1)	–	28.8 nM	–	–	–	–
